{"source": "paper PMC4624954", "about": "“Delineating the Tes Interaction Site in Zyxin and Studying Cellular Effects of Its Disruption” (PLoS ONE, 2015)", "binders": {"B1": {"name": "Tes FL-GFP (natural protein, UniProt Q9UGI8 1-421, looked up)", "chain": "MDLENKVKKMGLGHEQGFGAPCLKCKEKCEGFELHFWRKICRNCKCGQEEHDVLLSNEEDRKVGKLFEDTKYTTLIAKLKSDGIPMYKRNVMILTNPVAAKKNVSINTVTYEWAPPVQNQALARQYMQMLPKEKQPVAGSEGAQYRKKQLAKQLPAHDQDPSKCHELSPREVKEMEQFVKKYKSEALGVGDVKLPCEMDAQGPKQMNIPGGDRSTPAAVGAMEDKSAEHKRTQYSCYCCKLSMKEGDPAIYAERAGYDKLWHPACFVCSTCHELLVDMIYFWKNEKLYCGRHYCDSEKPRCAGCDELIFSNEYTQAENQNWHLKHFCCFDCDSILAGEIYVMVNDKPVCKPCYVKNHAVVCQGCHNAIDPEVQRVTYNNFSWHASTECFLCSCCSKCLIGQKFMPVEGMVFCSVECKKRMS"}}, "target": "T1, Zyx FL WT-GFP (human, UniProt Q15942 1-572)", "T1 sequence (looked up)": "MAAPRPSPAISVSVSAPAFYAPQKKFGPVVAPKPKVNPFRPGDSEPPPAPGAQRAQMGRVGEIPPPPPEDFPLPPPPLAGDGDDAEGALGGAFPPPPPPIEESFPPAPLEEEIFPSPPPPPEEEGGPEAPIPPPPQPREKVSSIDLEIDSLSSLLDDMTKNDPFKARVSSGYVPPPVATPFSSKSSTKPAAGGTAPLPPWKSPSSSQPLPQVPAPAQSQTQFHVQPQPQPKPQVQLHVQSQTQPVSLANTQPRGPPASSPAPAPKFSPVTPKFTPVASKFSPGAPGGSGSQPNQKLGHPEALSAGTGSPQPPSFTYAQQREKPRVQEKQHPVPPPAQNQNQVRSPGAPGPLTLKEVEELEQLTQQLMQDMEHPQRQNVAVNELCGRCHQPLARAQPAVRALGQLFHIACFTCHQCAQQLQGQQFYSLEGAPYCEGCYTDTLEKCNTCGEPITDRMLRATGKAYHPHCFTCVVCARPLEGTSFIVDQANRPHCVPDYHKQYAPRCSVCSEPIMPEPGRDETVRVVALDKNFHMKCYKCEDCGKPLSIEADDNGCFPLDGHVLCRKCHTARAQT", "assay": "cell-based or functional assay"}
{"binder": "B1", "values": [{"measurement": "quantity of Tes FL-GFP in focal adhesions of zyxin-null fibroblasts with Zyx FL WT-DsRed against the DsRed control (confocal immunofluorescence)", "value": 2, "unit": "fold"}]}
